Legend:
[1] = test system: patients receiving enfortumab vedotin; assay: Reports of severe cutaneous adverse reactions in patients receiving enfortumab vedotin; type: in vivo, human
From the text: These reactions occurred predominantly during the first cycle of treatment. AEs reported in these cases included Stevens-Johnson Syndrome (SJS) (5 cases), blister (3 cases), dermatitis bullous (3 cases), symmetrical drug-related intertriginous and flexural exanthema (SDRIFE; 2 cases), and 1 case each of dermatitis exfoliative, exfoliative rash, epidermal necrosis, oropharyngeal blistering, stomatitis, and toxic epidermal necrolysis (TEN).

[2] = test system: urothelial carcinoma subjects; assay: Enfortumab vedotin monotherapy studies of urothelial carcinoma, SAEs of severe cutaneous adverse reactions; type: in vivo, human
[3] = test system: acute myeloid leukemia (AML) at relapse; details: administered alone; cited from earlier work
[4] = test system: cisplatin-ineligible patients with T2 T4N0M0 MIBC; details: cited from earlier work
[5] = test system: cisplatin-ineligible patients with muscle invasive bladder cancer (MIBC); assay: Phase 1b/2 study (Cohort H): safety, tolerability, exposure and disposition with neoadjuvant EV monotherapy and RC+PLND; type: in vivo, human
From the text: Safety assessments are based on the information collected through the safety surveillance process and will include the data from recorded AEs, including serious adverse events (SAEs), concomitant medications, physical examination findings, cardiac monitoring, and laboratory tests. Safety is monitored over the course of the study by the SMC.
The safety analysis evaluates the type, incidence, severity, seriousness, and relatedness of AEs, and the type, incidence, and severity of laboratory abnormalities. The incidence, duration, and resolution of AEs of special interest (AESIs) are summarized.
The assessment of safety during the course of this study will consist of the surveillance and recording of AEs including SAEs, recording of concomitant medication, and measurements of protocol-specified physical examination findings, cardiac monitoring, and laboratory tests.
AE severity should be graded using the National Cancer Institute's Common Terminology Criteria for Adverse Events (NCI CTCAE), Version 4.03.
An overview of AEs provide a tabulation, by cohort and overall, of the incidence of all AEs, TEAEs, treatment-related AEs, Grade 3 and higher AEs, SAEs, treatment-related SAEs, deaths, and AEs leading to study treatment discontinuation. AEs are defined as treatment emergent if they are newly occurring or worsen following study treatment.
AEs are listed and summarized by Medical Dictionary for Regulatory Activities (MedDRA), preferred term, severity, and relationship to study drug. In the event of multiple occurrences of the same AE with the same preferred term in 1 patient, the AE are counted once as the occurrence. The incidence of AEs are tabulated by preferred term and cohorts. AEs leading to premature discontinuation of study drug are summarized and listed in the same manner.
(§1) The methods for this Section 6.2 (Example 2) were as described in Section 6.1 (Example 1). […] Patients received 3 cycles of neoadjuvant EV (1.25 mg/kg) on Days 1 and 8 of every 3-week cycle prior to RC+PLND. The primary endpoint of the study was pathological complete response rate (pCRR; ypT0N0) by central review. Key secondary endpoints included pathological downstaging (pDS) rate (yp T0, Tis, Ta, T1,N0) and safety.

[6] = test system: cisplatin-ineligible patients with muscle invasive bladder cancer (MIBC); assay: Phase 1b/2 study (Cohort H): neoadjuvant EV monotherapy followed by RC+PLND, antitumor activity (pCR, pDS, EFS); type: in vivo, human
Description: Treatment with enfortumab vedotin monotherapy is evaluated in patients with MIBC. This study enrolls approximately 20 patients with cT2-T4aN0M0 MIBC.
pCR is the primary endpoint and is defined as the absence of viable tumor (pT0N0) in examined tissue from RC+PLND. pCR is assessed by central pathology review after RC+PLND with curative intent. Post-RC restaging is performed via the same radiologic modalities at the first follow-up disease assessment scan (12 weeks after RC+PLND). During the first 2 years on study, follow-up is performed every 12 weeks (±14 days) from RC+PLND until disease progression/recurrence, patient death study closure, or withdrawal of consent, whichever occurs first. After 2 years on study, the frequency of visits including response assessments is reduced to every 24 weeks (±14 days). Tumor imaging should also be performed whenever disease progression is suspected.
Radiographic disease progression precluding a curative intent surgery noted prior to RC+PLND, failure to undergo RC+PLND for patients with residual muscle invasive disease and/or any radiographic disease present, gross residual disease left behind at time of RC+PLND, local or distant recurrence post-RC as assessed radiographically and/or confirmed with biopsy (local pathology review), or death from any cause are considered EFS events. Patients who are found to have EFS events but are still alive are to transition into long-term follow-up.
Tumor tissue samples collected from the patient's diagnostic TURBT within 90 days prior to the first dose of study treatment are sent for central pathology review. Tissue samples from RC+PLND will also be sent for central pathology review of pathologic response assessment. Tumor response is assessed after RC+PLND with curative intent by pathology review analysis. Pathologic staging information includes TNM classification, histology, lymph node counts, and surgical margins.
The pCRR is defined as the proportion of patients having pCR. pCR is defined as the absence of viable tumor (pT0N0) in examined tissue from RC+PLND.
pDSR is defined as the proportion of patients having pDS. pDS is defined as patients with <pT2 (includes pT0, pTis, pTa, pT1) and N0 in examined tissue from RC+PLND.
EFS is defined as the time from the start of study treatment to the first occurrence of any of the following events: • Radiographic disease progression precluding a curative intent surgery prior to RC+PLND • Failure to undergo RC+PLND for participants with residual muscle-invasive disease and/or any radiographic disease present • Gross residual disease left behind at time of RC+PLND (surgeon unable to complete curative intent surgery due to unresectable tumor or newly discovered metastatic disease) • Local or distant recurrence post-RC as assessed by CT or MRI and/or biopsy. If biopsy is not feasible due to participant safety, CT/MRI alone is sufficient • Death from any cause
Patients who refuse surgery but without a post-screening scan are censored at study day 1.
as §1

[7] = test system: patients with T2 T3bN0M0 MIBC; details: cited from earlier work
[8] = 2 cycles of 1200 mg prior to RC, 69 patients
[9] = 2 cycles of 1200 mg prior to RC
[10] = EFS by investigator assessment, EV Mono N = 22
[11] = Present study, cisplatin ineligible, EV monotherapy x 3 cycles, sample size 22
[12] = by investigator assessment, N = 22

Substance: enfortumab vedotin
- severe cutaneous adverse reaction reports: SDRIFE ([1]; 15 patients): 2 cases
- severe cutaneous adverse reaction reports: Stevens-Johnson Syndrome (SJS) ([1]; 15 patients): 5 cases
- severe cutaneous adverse reaction reports: blister ([1]; 15 patients): 3 cases
- severe cutaneous adverse reaction reports: dermatitis bullous ([1]; 15 patients): 3 cases
- severe cutaneous adverse reaction reports: dermatitis exfoliative ([1]; 15 patients): 1 case
- severe cutaneous adverse reaction reports: epidermal necrosis ([1]; 15 patients): 1 case
- severe cutaneous adverse reaction reports: exfoliative rash ([1]; 15 patients): 1 case
- severe cutaneous adverse reaction reports: oropharyngeal blistering ([1]; 15 patients): 1 case
- severe cutaneous adverse reaction reports: stomatitis ([1]; 15 patients): 1 case
- severe cutaneous adverse reaction reports: toxic epidermal necrolysis (TEN) ([1]; 15 patients): 1 case
- patients with reports of severe cutaneous adverse reactions ([1]; some had fatal outcomes, predominantly during the first cycle): 15 patients
- SAE of severe cutaneous adverse reaction: SJS ([2]; 749 subjects): 0.1%
- SAE of severe cutaneous adverse reaction: blister ([2]; 749 subjects): 0.1%
- SAE of severe cutaneous adverse reaction: conjunctivitis ([2]; 749 subjects): 0.1%
- SAE of severe cutaneous adverse reaction: dermatitis bullous ([2]; 749 subjects): 0.4%
- SAE of severe cutaneous adverse reaction: drug eruption ([2]; 749 subjects): 0.4%
- SAE of severe cutaneous adverse reaction: stomatitis ([2]; 749 subjects): 0.1%
- SAE of severe cutaneous adverse reaction: toxic skin eruption ([2]; 749 subjects): 0.1%
- SAEs of severe cutaneous adverse reactions ([2]; 749 subjects): 1.5%
- SAEs of severe cutaneous adverse reactions ([2]; of 749 subjects, EV monotherapy studies of urothelial carcinoma): 11 subjects

Substance: CT-011
- response in treating acute myeloid leukemia (AML) at relapse [3]: failed to show response

Substance: atezolizumab
- pCR, patients [4, 8]: 29%
- safety findings [4, 8]: no significant safety findings
- pCR, PD-L1-negative cohort [4, 9]: 16%
- pCR, patients with PD-L1-positive disease [4, 9]: 40%
- patients down staged to non-muscle invasive disease [4, 9]: 39%
- PCR (no viable tumor at surgery), ypT0 + ypTis ([4]; ABACUS, cisplatin ineligible, Atezolizumab x 2, sample size 88): 31% (ypT0 +

Substance: enfortumab vedotin [EV Mono]
- AECI Any infusion related reactions, ≥Grade 3 ([5]; EV Mono N = 22): 0 n
- AECI Any ocular disorder: Blurred vision, ≥Grade 3 ([5]; EV Mono N = 22): 0 n
- AECI Any ocular disorder: Corneal disorders, Any Grade ([5]; EV Mono N = 22): 0 n
- AECI Any ocular disorder: Corneal disorders, ≥Grade 3 ([5]; EV Mono N = 22): 0 n
- AECI Any ocular disorder: Dry eye, ≥Grade 3 ([5]; EV Mono N = 22): 0 n
- AECI Any peripheral neuropathy, ≥Grade 3 ([5]; EV Mono N = 22): 0 n
- Any TEAEs leading to bladder surgery not performed ([5]; EV Mono N = 22): 0 n
- EV-related TEAEs leading to bladder surgery not performed ([5]; EV Mono N = 22): 0 n
- EV-related TEAEs leading to death ([5]; EV Mono N = 22): 0 n
- RC-related TEAEs leading to death ([5]; EV Mono N = 22): 0 n
- TEAE (Table 27) Hyperglycaemia ([5]; EV Mono N = 22, listed as EV): 13.6%
- TEAE (Table 27) Small intestinal obstruction ([5]; EV Mono N = 22, listed as EV): 9.1%
- TEAE (Table 27) Urinary tract infection ([5]; EV Mono N = 22, listed as EV): 9.1%
- patients with Grade 3 or higher TEAEs ([5]; EV monotherapy and RC+PLND): 59.1%
- tolerability of 3 cycles of neoadjuvant treatment ([5]; cisplatin-ineligible MIBC patients): well-tolerated
- Grade 5 AE Acute Kidney Injury: Days from RC + PLND ([5]; in vivo): 62 days
- Grade 5 AE Acute Kidney Injury: Days from last dose of EV ([5]; in vivo): 142 days
- Grade 5 AE Cardiac Arrest: Days from RC + PLND ([5]; in vivo): 15 days
- Grade 5 AE Cardiac Arrest: Days from last dose of EV ([5]; in vivo): 45 days
- Grade 5 AE Saddle PE: Days from RC + PLND ([5]; in vivo): 55 days
- Grade 5 AE Saddle PE: Days from last dose of EV ([5]; in vivo): 127 days
- patients whose grade 5 AEs occurred >30 days after the end of study treatment ([5]; in vivo): 2 pts
- patients with grade 5 adverse events while on the study ([5]; in vivo): 3 patients
- observed safety profile of neoadjuvant EV monotherapy ([5]; patients in this study): consistent with the known safety profile of EV
- Rash maculo-papular leading to EV discontinuation: AE onset after last EV dose ([5]; subject completed Cycle 2, Gr3): ^cSubject completed Cycle 2. AE onset occurred 4 days after last EV dose. (Gr3)
- pathological complete response (pCR), patients ([6]; 3 cycles neoadjuvant EV 1.25 mg/kg Days 1 and 8 of 3-week cycle, preliminary analysis of 22 patients): 36%
- Number of subjects who have recurrence or died [6, 10]: 5
- Subjects who have recurrence or died, figure in parentheses (share of N = 22) [6, 10]: (22.7)
- PCR (no viable tumor at surgery), ypT0 and ypTis [6, 11]: 45.5% (ypT0
- PCR (no viable tumor at surgery), ypT0 only [6, 11]: 32% (ypT0
- pDS (non-muscle invasive disease at surgery), includes pCR [6, 11]: 50% (includes
- EFS Rate at 6 months [6, 12]: 88.2%
- Event free-survival (EFS), 25th percentile [6, 12]: 6.7, — months
- Event free-survival (EFS), median [6, 12]: not reached
- Event free-survival (EFS), observed min [6, 12]: 2.60 months
- Event free-survival (EFS), observed max ([6]; by investigator assessment, N = 22, + printed after value): ≥ 12.32 months
- EFS Rate at 12 months ([6]; by investigator assessment, N = 22, one subject censored at study day 190 due to a data issue): 60.5%
- pCRR compared with rates seen with chemotherapy in cisplatin-eligible MIUC patients ([6]; cisplatin-ineligible MIBC patients, neoadjuvant EV): compares favorably

Substance: pembrolizumab
- pCR rate ([7]; 3 cycles of 200 mg before RC, among 50 treated patients): 42%
- pCR rate in patients with PD L1 positive disease ([7]; 3 cycles of 200 mg before RC): 54.3%
- pathologic downstaging rate ([7]; 3 cycles of 200 mg before RC): 65.7%
- safety of neoadjuvant administration ([7]; 3 cycles of 200 mg before RC): safely administered
- pDS (non-muscle invasive disease at surgery), includes pCR ([7]; PURE-01, Pembrolizumab x 3, sample size 50): 54% (includes
- PCR (no viable tumor at surgery) ([7]; PURE-01, cisplatin eligible (n = 42) and ineligible (n = 8), Pembrolizumab x 3, sample size 50): 42%

From US20250064956A1, “METHODS FOR TREATING MUSCLE INVASIVE UROTHELIAL CANCER OR MUSCLE INVASIVE BLADDER CANCER WITH ANTIBODY DRUG CONJUGATES (ADC) THAT BIND TO 191P4D12 PROTEINS” (AGENSYS, INC., priority 2022, published 2025)
